Blank lines part the entries; values can stand above or below the sequence they belong to.
Key:
HLA-B*15:01 [1] = experiment: IEDB peptide-MHC binding, purified MHC/competitive/fluorescence; filed as Kd, often an IC50 or EC50 that approximates it; ≥ and ≤ were set here for values at or beyond the usual limits of such assays; conditions: source organism: Bacillus anthracis str. A0488
HLA-A*01:01 [2] = experiment: IEDB peptide-MHC binding, purified MHC/competitive/radioactivity; filed as Kd, often an IC50 or EC50 that approximates it; ≥ and ≤ were set here for values at or beyond the usual limits of such assays
HLA-A*23:01 = experiment: as above
HLA-A*24:02 = experiment: as above
HLA-A*26:01 [3] = experiment: as above
HLA-A*29:02 = experiment: as above
HLA-A*30:02 = experiment: as above
HLA-B*40:01 [4] = experiment: as above
HLA-B*44:03 = experiment: as above; conditions: source organism: Dengue virus 1 Brazil/97-11/1997
HLA-B*40:01 [5] = experiment: IEDB peptide-MHC binding, purified MHC/direct/fluorescence; filed as Kd, often an IC50 or EC50 that approximates it; ≥ and ≤ were set here for values at or beyond the usual limits of such assays
HLA-B*44:02 = experiment: as above; conditions: source organism: Influenza A virus (A/egret/Hong Kong/757.3/2002(H5N1))
HLA-A*30:01 = experiment: IEDB peptide-MHC binding, purified MHC/competitive/radioactivity; filed as Kd, often an IC50 or EC50 that approximates it; ≥ and ≤ were set here for values at or beyond the usual limits of such assays
HLA-A*32:01 = experiment: as above
HLA-A*02:01 = experiment: IEDB peptide-MHC binding, purified MHC/direct/fluorescence; filed as Kd, often an IC50 or EC50 that approximates it; ≥ and ≤ were set here for values at or beyond the usual limits of such assays
HLA-A*03:01 = experiment: as above
HLA-A*11:01 = experiment: as above
HLA-A*26:01 [6] = experiment: as above
HLA-A*31:01 = experiment: as above
HLA-A*69:01 = experiment: as above
HLA-B*07:02 = experiment: as above
HLA-B*08:01 = experiment: as above
HLA-B*15:01 [7] = experiment: as above
HLA-B*27:05 = experiment: as above
HLA-B*58:01 = experiment: as above
HLA-B*15:17 = experiment: IEDB peptide-MHC binding, purified MHC/competitive/fluorescence; filed as Kd, often an IC50 or EC50 that approximates it; ≥ and ≤ were set here for values at or beyond the usual limits of such assays
HLA-A*01:01 [8] = experiment: IEDB peptide-MHC binding, purified MHC/direct/fluorescence; filed as Kd, often an IC50 or EC50 that approximates it; ≥ and ≤ were set here for values at or beyond the usual limits of such assays; conditions: source organism: Comamonas sediminis
[9] = source organism: Mammarenavirus whitewaterense
[10] = source organism: SARS coronavirus Tor2
[11] = source organism: Dengue virus 2 Jamaica/1409/1983
[12] = source organism: Dengue virus 1 Brazil/97-11/1997
[13] = source organism: Mammarenavirus brazilense
[14] = source organism: Mammarenavirus lassaense
[15] = source organism: Mammarenavirus juninense
[16] = source organism: Corynebacterium efficiens
[17] = source organism: Corynebacterium glutamicum
[18] = source organism: Comamonas sediminis

Sequence: AEVRPVVSY
Kd (HLA-B*15:01 [1]): 0.0735 µM

Sequence: CSYKIGHHV
Kd (HLA-A*01:01 [2]; [9]): 0.0591 µM | Kd (HLA-A*23:01; [9]): 17.5 µM | Kd (HLA-A*24:02; [9]): ≥ 29.2 µM | Kd (HLA-A*26:01 [3]; [9]): ≥ 64.5 µM | Kd (HLA-A*29:02; [9]): ≥ 26.3 µM | Kd (HLA-A*30:02; [9]): 0.0944 µM

Sequence: FFASFYYIW
Kd (HLA-A*01:01 [2]; [10]): ≥ 37.6 µM | Kd (HLA-A*23:01; [10]): 0.176 µM | Kd (HLA-A*24:02; [10]): 0.0209 µM | Kd (HLA-A*26:01 [3]; [10]): ≥ 26.2 µM | Kd (HLA-A*29:02; [10]): 0.0945 µM | Kd (HLA-A*30:02; [10]): ≥ 67.1 µM

Sequence: GEEVQVLAL
Kd (HLA-B*40:01 [4]; [11]): 0.00309 µM

Sequence: GEVDSFSLGI
Kd (HLA-B*40:01 [4]; [12]): 0.0567 µM | Kd (HLA-B*44:03): 0.0194 µM

Sequence: GYKETPFLTI
Kd (HLA-A*23:01; [13]): 0.139 µM | Kd (HLA-A*24:02; [13]): 0.159 µM | Kd (HLA-A*29:02; [13]): 0.108 µM

Sequence: HDLMMGYAWI
Kd (HLA-A*01:01 [2]; [14]): ≥ 51 µM | Kd (HLA-A*23:01; [14]): 8.22 µM | Kd (HLA-A*24:02; [14]): ≥ 40.1 µM | Kd (HLA-A*26:01 [3]; [14]): ≥ 69.7 µM | Kd (HLA-A*29:02; [14]): ≥ 63.9 µM | Kd (HLA-A*30:02; [14]): 19.2 µM

Sequence: HEGYEEFTM
Kd (HLA-B*40:01 [5]; source organism: Influenza A virus (A/egret/Hong Kong/757.3/2002(H5N1))): 0.0119 µM | Kd (HLA-B*44:02): ≥ 20 µM

Sequence: HEWCCRSCTL
Kd (HLA-B*40:01 [4]; [12]): 0.00399 µM

Sequence: IAMGYVVSSF
Kd (HLA-A*01:01 [2]; [15]): 5.14 µM | Kd (HLA-A*26:01 [3]; [15]): 0.53 µM | Kd (HLA-A*29:02; [15]): 1.49 µM | Kd (HLA-A*30:01; [15]): 9.1 µM | Kd (HLA-A*30:02; [15]): 0.22 µM | Kd (HLA-A*32:01; [15]): 0.996 µM

Sequence: IEEGRTLRVL
Kd (HLA-B*40:01 [4]; [12]): 0.0718 µM

Sequence: IENTTANISL
Kd (HLA-B*40:01 [4]; [12]): 0.00315 µM

Sequence: IGAGICASY
Kd (HLA-A*01:01 [2]; [10]): ≥ 47.8 µM | Kd (HLA-A*23:01; [10]): ≥ 77.8 µM | Kd (HLA-A*24:02; [10]): ≥ 60 µM | Kd (HLA-A*26:01 [3]; [10]): 6.65 µM | Kd (HLA-A*29:02; [10]): 0.0199 µM | Kd (HLA-A*30:02; [10]): 0.00118 µM

Kd (HLA-A*02:01; [16]): ≥ 20 µM | Kd (HLA-A*03:01; [16]): ≥ 20 µM | Kd (HLA-A*11:01; [16]): ≥ 20 µM | Kd (HLA-A*26:01 [6]; [16]): ≥ 20 µM | Kd (HLA-A*31:01; [16]): ≥ 20 µM | Kd (HLA-A*69:01; [17]): 0.507 µM | Kd (HLA-B*07:02; [16]): ≥ 20 µM | Kd (HLA-B*08:01; [16]): ≥ 20 µM | Kd (HLA-B*15:01 [7]; [16]): ≥ 20 µM | Kd (HLA-B*27:05; [16]): ≥ 20 µM | Kd (HLA-B*40:01 [5]; [16]): ≥ 20 µM | Kd (HLA-B*58:01; [17]): 0.00443 µM | Kd (HLA-B*15:17; [17]): ≤ 0.001 µM
Sequence: ITWETPMIW

Sequence: KEEESEGAI
Kd (HLA-B*40:01 [4]; source organism: Dengue virus 3 Martinique/1243/1999): 0.0464 µM

Sequence: KEFAAGRKSL
Kd (HLA-B*40:01 [4]; [11]): 0.00963 µM

Kd (HLA-A*01:01 [8]): ≥ 20 µM | Kd (HLA-A*02:01; [18]): ≥ 20 µM | Kd (HLA-A*03:01; [18]): ≥ 20 µM | Kd (HLA-A*11:01; [18]): ≥ 20 µM | Kd (HLA-A*26:01 [6]; [18]): ≥ 20 µM | Kd (HLA-A*31:01; [18]): 4.66 µM | Kd (HLA-A*69:01; [18]): ≥ 20 µM | Kd (HLA-B*07:02; [18]): ≥ 20 µM | Kd (HLA-B*08:01; [18]): ≥ 20 µM | Kd (HLA-B*15:01 [7]; [18]): 1.77 µM | Kd (HLA-B*27:05; [18]): ≥ 20 µM | Kd (HLA-B*40:01 [5]; [18]): ≥ 20 µM | Kd (HLA-B*58:01; [18]): 0.00829 µM | Kd (HLA-B*15:17; [18]): 0.00135 µM
Sequence: KSLGIDQIW

Sequence: KTSVDCNMY
Kd (HLA-A*01:01 [2]; [10]): 0.0986 µM | Kd (HLA-A*23:01; [10]): ≥ 77.8 µM | Kd (HLA-A*24:02; [10]): ≥ 77.6 µM | Kd (HLA-A*26:01 [3]; [10]): ≥ 81.5 µM | Kd (HLA-A*29:02; [10]): 2.72 µM | Kd (HLA-A*30:02; [10]): 0.00266 µM

Sequence: LFTKFFYLL
Kd (HLA-A*01:01 [2]; [10]): ≥ 78.1 µM | Kd (HLA-A*23:01; [10]): 0.154 µM | Kd (HLA-A*24:02; [10]): 0.11 µM | Kd (HLA-A*26:01 [3]; [10]): ≥ 38.1 µM | Kd (HLA-A*29:02; [10]): 6.96 µM | Kd (HLA-A*30:02; [10]): ≥ 83.3 µM

Sequence: LSEMLNKEY
Kd (HLA-A*01:01 [2]; [13]): 0.00525 µM | Kd (HLA-A*26:01 [3]; [13]): ≥ 77.9 µM | Kd (HLA-A*29:02; [13]): 5.72 µM | Kd (HLA-A*30:01; [13]): 9.77 µM | Kd (HLA-A*30:02; [13]): 14.7 µM | Kd (HLA-A*32:01; [13]): ≥ 77.8 µM

Reference: the Immune Epitope Database (IEDB)
